{"source": "paper doi:10.1101/2020.12.15.422910", "biological_target": "OsBOR3_(Δ1-642) (Oryza sativa)", "assay": "cryo-EM structure"}
{"substance": "OsBOR3_(Δ1-642) (domain or fragment)", "values": [{"measurement": "stoichiometry N", "value": 2}]}
